Target: T1, C-reactive protein (CRP) (UniProt P02741 19-224)
T1 sequence: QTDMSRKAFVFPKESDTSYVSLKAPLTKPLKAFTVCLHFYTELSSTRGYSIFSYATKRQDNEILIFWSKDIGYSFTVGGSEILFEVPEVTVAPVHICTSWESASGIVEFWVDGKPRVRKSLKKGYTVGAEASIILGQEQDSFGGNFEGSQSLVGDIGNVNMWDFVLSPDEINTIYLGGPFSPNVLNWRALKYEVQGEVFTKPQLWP
Assay: fluorescence recovery from graphene oxide

B1: FAM-labeled CRP aptamer (ssDNA)
DNA: GGCAGGAAGACAAACATATAATTGAGATCGTTTGATGACTTTGTAAGAGTGTGGAATGGTCTGTGGTGCTGT
binding result: binds
